According to the supplement of paper PMC9233669:
This sample holds only a part of the variants without activity.

Legend:
biotinyl-Phe-oxazolone = assay: self-aminoacylation, catalytic enhancement (BFO) (fold over background); higher = more active; k-Seq, kA / k0A0; sequences stand for … in GGGAAUGGAUCCACAUCUACGAAUUC…UUCACUGCAGACUUGACGAAGCUG
How it was run: (§1)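 Working in 50 μL HEPES/NaCl/KCl/MgCl2/CaCl2 buffer with 5% acetonitrile at pH 6.9–7.0, mutagenized RNA pools (0.43 μM; 21-nt variable region) were reacted with 2–1250 μM of each biotinyl-aminoacyl-oxazolone for 90 minutes at room temperature. Streptavidin capture followed, with quantification by triplicate qPCR and Illumina sequencing. Catalytic enhancement is reported as median kA over the uncatalyzed rate, the low-activity peak of a bimodal Gaussian fit to the data.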

biotinyl-Ile-oxazolone = assay: self-aminoacylation, catalytic enhancement (BIO) (fold over background); higher = more active; k-Seq, kA / k0A0; sequences stand for … in GGGAAUGGAUCCACAUCUACGAAUUC…UUCACUGCAGACUUGACGAAGCUG
How it was run: as §1

biotinyl-Met-oxazolone = assay: self-aminoacylation, catalytic enhancement (BMO) (fold over background); higher = more active; k-Seq, kA / k0A0; sequences stand for … in GGGAAUGGAUCCACAUCUACGAAUUC…UUCACUGCAGACUUGACGAAGCUG
How it was run: as §1

biotinyl-Val-oxazolone = assay: self-aminoacylation, catalytic enhancement (BVO) (fold over background); higher = more active; k-Seq, kA / k0A0; sequences stand for … in GGGAAUGGAUCCACAUCUACGAAUUC…UUCACUGCAGACUUGACGAAGCUG
How it was run: as §1

biotinyl-Leu-oxazolone = assay: self-aminoacylation, catalytic enhancement (BLO) (fold over background); higher = more active; k-Seq, kA / k0A0; sequences stand for … in GGGAAUGGAUCCACAUCUACGAAUUC…UUCACUGCAGACUUGACGAAGCUG
How it was run: as §1

biotinyl-Trp-oxazolone = assay: self-aminoacylation, catalytic enhancement (BWO) (fold over background); higher = more active; k-Seq, kA / k0A0; sequences stand for … in GGGAAUGGAUCCACAUCUACGAAUUC…UUCACUGCAGACUUGACGAAGCUG
How it was run: as §1

Sequence	self-aminoacylation (biotinyl-Phe-oxazolone)	self-aminoacylation (biotinyl-Ile-oxazolone)	self-aminoacylation (biotinyl-Met-oxazolone)	self-aminoacylation (biotinyl-Val-oxazolone)	self-aminoacylation (biotinyl-Leu-oxazolone)	self-aminoacylation (biotinyl-Trp-oxazolone)
CCACUUCAGACAAUCGGUCUG [Fam1A.1 aminoacylation ribozyme variant]	1.67	1.62	1.66	1.65	1.33	1.71
CCACUUCUAACAAUCGGUCUG [Fam1A.1 aminoacylation ribozyme variant]	0.834	0.858	0.758	0.897	0.875	0.68
CCAGACUUCAAGCAAACGGUC [Fam1B.1 aminoacylation ribozyme variant]	0.824	0.706	0.591	0.811	0.628	0.814
CCAGACUUCAAGCAAUCCGUC [Fam1B.1 aminoacylation ribozyme variant]	1.19	1.67	1.47	1.58	1.45	1.95
CCAGACUUCAAGCAAUCGGUC [Fam1B.1 aminoacylation ribozyme variant]	43.9	1.45	1.42	1.54	2.04	26
CCAGACUUCAAGCAAUCGGUU [Fam1B.1 aminoacylation ribozyme variant]	7.61	2.02	2.04	2.43	2.69	6.59
CCAGACUUCAAGCAAUCGUUC [Fam1B.1 aminoacylation ribozyme variant]	1.08	1.06	0.78	0.849	0.764	0.853
CCAGACUUCAAGCAAUCUGUC [Fam1B.1 aminoacylation ribozyme variant]	0.591	0.467	0.444	0.576	0.45	0.309
CCAGACUUCAAGCAGUCGGUC [Fam1B.1 aminoacylation ribozyme variant]	1.4	1.48	1.1	1.3	1.77	1.39
CCAGACUUUAAGCAAUCGGUC [Fam1B.1 aminoacylation ribozyme variant]	1.04	1.11	0.874	0.922	0.94	0.821
CCAGUUCAAACAAUCGGUCUG [Fam1A.1 aminoacylation ribozyme variant]	14.2	1.41	1.34	1.39	1.5	10.7
CCAUACUUCAAGCAAUCGGGC [Fam1B.1 aminoacylation ribozyme variant]	2.06	1.95	1.53	1.73	1.61	1.15
CCAUACUUCAAGCAAUCGGUG [Fam1B.1 aminoacylation ribozyme variant]	24.4	4.16	5.58	4.3	8.33	6.14
CCAUACUUCAAGCAAUUGGUC [Fam1B.1 aminoacylation ribozyme variant]	1.13	0.743	0.689	0.762	0.667	0.625
CCAUACUUCCAGCAAUCGGUC [Fam1B.1 aminoacylation ribozyme variant]	0.952	1.45	1.06	1.39	1.1	0.815
CCAUUCUUCAAGCAAUCGGUC [Fam1B.1 aminoacylation ribozyme variant]	2.79	1.04	0.939	0.976	0.992	1.68
CCAUUUCAAACAAUCGGUCUG [Fam1A.1 aminoacylation ribozyme variant]	7.75	1.03	1.13	1.04	1.19	5.46
CCCCACUUCAAGCAAUGGGUC [Fam1B.1 aminoacylation ribozyme variant]	1.88	1.32	0.959	1.67	0.835	1.96
CCCCACUUCAAGCACUCGGUC [Fam1B.1 aminoacylation ribozyme variant]	11	2.26	2.79	2.79	3.08	4.4
CCCCACUUCAAGCCAUCGGUC [Fam1B.1 aminoacylation ribozyme variant]	10	2.33	2.87	2.82	2.63	4.79
CCCCAGUUCAAGCAAUCGGUC [Fam1B.1 aminoacylation ribozyme variant]	7.95	2.48	2.77	2.65	3.86	7.44
CCGCAAUUCAAGCAAUCGGUC [Fam1B.1 aminoacylation ribozyme variant]	18.7	1.94	1.73	2.12	1.9	14.2
CCGCACUCCAAGCAAUCGGUC [Fam1B.1 aminoacylation ribozyme variant]	6.39	1.14	0.991	1.7	0.931	5.87
CCGCACUUCAAGCAAUCAGUC [Fam1B.1 aminoacylation ribozyme variant]	18.8	0.854	0.798	0.859	0.943	7.12
CCGCACUUCAAGCAAUCGGCC [Fam1B.1 aminoacylation ribozyme variant]	6.69	1.97	1.71	3.21	1.61	6.53
CCGCACUUCAAGCAAUCGGUG [Fam1B.1 aminoacylation ribozyme variant]	55.1	5.07	7.36	5.59	10.3	8.54

Sequence	self-aminoacylation (biotinyl-Phe-oxazolone)	self-aminoacylation (biotinyl-Ile-oxazolone)	self-aminoacylation (biotinyl-Met-oxazolone)	self-aminoacylation (biotinyl-Val-oxazolone)	self-aminoacylation (biotinyl-Leu-oxazolone)	self-aminoacylation (biotinyl-Trp-oxazolone)
CCGCACUUCAAGCAAUCGUUC [Fam1B.1 aminoacylation ribozyme variant]	1.26	0.8	0.742	0.944	0.688	0.659
CCGCACUUCAAGUAAUCGGUC [Fam1B.1 aminoacylation ribozyme variant]	15.6	1.3	1.4	1.37	1.54	14.5
CCGCACUUCACGCAAUCGGUC [Fam1B.1 aminoacylation ribozyme variant]	1.66	1.36	1.54	2.1	2.34	1.85
CCGCACUUCCAGCAAUCGGUC [Fam1B.1 aminoacylation ribozyme variant]	0.932	1.35	0.995	2.03	1.04	0.883
CCGCAUUUCAAGCAAUCGGUC [Fam1B.1 aminoacylation ribozyme variant]	16.8	2.36	1.92	2.48	2.72	14.3
CCUCACUUCAAGCAAUCGAUC [Fam1B.1 aminoacylation ribozyme variant]	1.71	0.494	0.482	0.691	0.453	0.672
CCUCACUUCAAGCAGUCGGUC [Fam1B.1 aminoacylation ribozyme variant]	1.1	0.786	0.646	0.855	0.892	0.928
CCUCACUUGAAGCAAUCGGUC [Fam1B.1 aminoacylation ribozyme variant]	0.809	0.636	0.679	0.678	0.607	0.664
CGAAACUUCAAGCAAUCGGUC [Fam1B.1 aminoacylation ribozyme variant]	7.94	1.17	0.901	1.18	0.993	5.43
CGACACCUCAAGCAAUCGGUC [Fam1B.1 aminoacylation ribozyme variant]	1.16	0.973	1.03	1.06	0.749	1.17
CGACACUUAAAGCAAUCGGUC [Fam1B.1 aminoacylation ribozyme variant]	1.13	0.886	0.956	0.95	0.849	0.792
CGACACUUCAAACAAUCGGUC [Fam1B.1 aminoacylation ribozyme variant]	22.9	1.23	1.31	1.64	1.71	12.5
CGACACUUCAAGAAAUCGGUC [Fam1B.1 aminoacylation ribozyme variant]	3.41	1.62	1.25	1.26	1.24	2.88
CGACACUUCAAGCAAUCGAUC [Fam1B.1 aminoacylation ribozyme variant]	0.965	0.672	0.582	0.727	0.611	0.715
CGACACUUCAAGCAAUCGGAC [Fam1B.1 aminoacylation ribozyme variant]	1.21	1.67	1.74	1.31	1.57	1.31
CGACACUUCAAGCAAUCGUUC [Fam1B.1 aminoacylation ribozyme variant]	1	0.778	0.629	0.946	0.669	0.465
CGACACUUCAAGCAAUCUGUC [Fam1B.1 aminoacylation ribozyme variant]	0.656	0.554	0.52	0.51	0.411	0.416
CGACUUCAAACAAUCGGGCUG [Fam1A.1 aminoacylation ribozyme variant]	10.4	2.45	2.05	2.73	2.34	12.7
CGACUUCAAACAAUCUGUCUG [Fam1A.1 aminoacylation ribozyme variant]	3.02	0.926	0.815	0.86	0.664	1.84
CGACUUCAAACAAUGGGUCUG [Fam1A.1 aminoacylation ribozyme variant]	0.777	1.2	1.2	1.09	0.941	0.968
CGACUUCAAACAUUCGGUCUG [Fam1A.1 aminoacylation ribozyme variant]	8.04	1.81	1.49	1.96	1.43	2.1
CGACUUCAAACCAUCGGUCUG [Fam1A.1 aminoacylation ribozyme variant]	0.966	0.838	0.807	1.08	0.811	0.886
CGACUUCAUACAAUCGGUCUG [Fam1A.1 aminoacylation ribozyme variant]	1.01	0.939	0.796	0.904	0.738	0.879
CGUACCCUGGUCAUCGAGUGA [Fam2.1 aminoacylation ribozyme variant]	10.1	4.66	8.76	5.62	9.81	10.9
CGUCACCUAGGUCAUCGGGUG [Fam2.2 aminoacylation ribozyme variant]	28.9	3.51	3.71	5.16	4.11	6
